Experimental data: article PMC4824355, “Translocator Protein-Mediated Stabilization of Mitochondrial Architecture during Inflammation Stress in Colonic Cells” (PLoS ONE, 2016)
Where “and” joins values, the source holds several entries; their conditions need not be identical. Equal entries are not always repeated.

Biological target: the molecule itself
Experiment: SDS-PAGE and immunoblot of detergent-solubilised mitochondrial membranes; HT-29 mitochondrial membranes solubilised in SDS or 0.1% DDM, 4%-12% Tris-glycine SDS-PAGE, anti-TSPO blot; cells untreated or treated with 10 ng/mL TNF, 1 uM PK 11195 or both for 24, 48 or 72 h

B1: translocator protein (18 kDa; tryptophan-rich sensory protein oxygen sensor, TSPO) (natural protein, human (endogenous in HT-29), UniProt P30536 1-169, looked up)
chain: MAPPWVPAMGFTLAPSLGCFVGSRFVHGEGLRWYAGLQKPSWHPPHWVLGPVWGTLYSAMGYGSYLVWKELGGFTEKAVVPLGLYTGQLALNWAWPPIFFGARQMGWALVDLLLVSGAAAATTVAWYQVSPLAARLLYPYLAWLAFTTTLNYCVWRDNHGWRGGRRLPE
notes: translocator protein (18 kDa), TSPO, human, endogenous in HT-29 colon carcinoma cells; Seen as monomer, dimer and trimer bands on an anti-TSPO blot; also called peripheral-type benzodiazepine receptor; mitochondrial translocator protein; source: endogenous, HT-29 mitochondrial membranes solubilised with SDS or 0.1% DDM
stoichiometry N: 3 and 2
